From paper PMC3366955

Assays:
[1] = SEC-MALS
[2] = molecular target: recombinant 42 kDa processed form of the P. falciparum merozoite surface protein 1, FVO allele (MSP1_(42)-FVO) (Plasmodium falciparum); experiment: SEC-MALS

Row | Substance | percent of the total peak area as aggregate [1] | percent of the protein as dimers [2] [%] | percent of the protein as multimers [2] [%] | stoichiometry N [2]
1 | recombinant 42 kDa processed form of the P. falciparum merozoite surface protein 1, FVO allele (MSP1_(42)-FVO) | approximately 1.7 MDa for 96% of the total peak area |  |  | 
2 | recombinant 42 kDa processed form of the P. falciparum merozoite surface protein 1, FVO allele (MSP1_(42)-FVO) (domain or fragment) |  | 72 | 28 | 2
